Assay results taken from article PMC12695660, “Genome-scale CRISPR screens identify PTGES3 as a direct modulator of androgen receptor function in advanced prostate cancer”.

What was measured:
[1] = target: T1, ARΔNTD (AR DBD-hinge-LBD);Smt3-PTGES3 (mouse;human, UniProt P19091;Q15185 528-899;1-160, |); experiment: fluorescence polarization; 1 uM DHT; equimolar Smt3-PTGES3; binding stronger than ARΔNTD alone (P=0.0254); FP/EMSA: 150 mM NaCl, 20 mM HEPES pH 7.5, 1 mM TCEP, 1 uM DHT, 10% glycerol, 0.05% IGEPAL CA-630, 100 nM DNA; proteins preincubated 30 min on ice at 8 uM; assay temperature not stated. Mass photometry: same buffer at 5 uM, flash diluted into PBS to 10 nM; details: protein: recombinant;recombinant; tags: ;N-terminal Smt3; label: 5'-fluorescein (6-FAM) on sense strand; blunt
[2] = target: ARΔNTD (AR DBD-hinge-LBD) (mouse, UniProt P19091 528-899); experiment: fluorescence polarization; 1 uM DHT; no PTGES3; apparent Kd only plotted; FP/EMSA: 150 mM NaCl, 20 mM HEPES pH 7.5, 1 mM TCEP, 1 uM DHT, 10% glycerol, 0.05% IGEPAL CA-630, 100 nM DNA; proteins preincubated 30 min on ice at 8 uM; assay temperature not stated. Mass photometry: same buffer at 5 uM, flash diluted into PBS to 10 nM; details: protein: recombinant; chain copies: 2; label: 5'-fluorescein (6-FAM) on sense strand; blunt
[3] = target: ARΔNTD (AR DBD-hinge-LBD);PTGES3 (tagless) (mouse;human, UniProt P19091;Q15185 528-899;1-160, |); experiment: fluorescence polarization; 1 uM DHT; equimolar PTGES3; binding stronger than ARΔNTD alone (P=0.0337); FP/EMSA: 150 mM NaCl, 20 mM HEPES pH 7.5, 1 mM TCEP, 1 uM DHT, 10% glycerol, 0.05% IGEPAL CA-630, 100 nM DNA; proteins preincubated 30 min on ice at 8 uM; assay temperature not stated. Mass photometry: same buffer at 5 uM, flash diluted into PBS to 10 nM; details: protein: recombinant;recombinant; tags: ;Smt3 tag cleaved by Ulp1; label: 5'-fluorescein (6-FAM) on sense strand; blunt
[4] = target: T1, ARΔNTD (AR DBD-hinge-LBD);Smt3-PTGES3; experiment: mass photometry; Smt3-PTGES3 restricts formation of heterogeneous complexes; FP/EMSA: 150 mM NaCl, 20 mM HEPES pH 7.5, 1 mM TCEP, 1 uM DHT, 10% glycerol, 0.05% IGEPAL CA-630, 100 nM DNA; proteins preincubated 30 min on ice at 8 uM; assay temperature not stated. Mass photometry: same buffer at 5 uM, flash diluted into PBS to 10 nM; details: protein: recombinant;recombinant; tags: ;N-terminal Smt3; blunt
ARDBD;PTGES3 (tagless) = ARDBD;PTGES3 (tagless) (mouse;human, UniProt P19091;Q15185 528-631;1-160, |); experiment: EMSA; equimolar PTGES3 augments ARDBD binding; PTGES3 variant (tagless or Smt3) not stated; FP/EMSA: 150 mM NaCl, 20 mM HEPES pH 7.5, 1 mM TCEP, 1 uM DHT, 10% glycerol, 0.05% IGEPAL CA-630, 100 nM DNA; proteins preincubated 30 min on ice at 8 uM; assay temperature not stated. Mass photometry: same buffer at 5 uM, flash diluted into PBS to 10 nM; details: protein: recombinant;recombinant; tags: ;Smt3 tag cleaved by Ulp1; label: 5'-fluorescein (6-FAM) on sense strand; blunt
Sequence of ARDBD;PTGES3 (tagless) (P19091 528-631, chain 1 of 2): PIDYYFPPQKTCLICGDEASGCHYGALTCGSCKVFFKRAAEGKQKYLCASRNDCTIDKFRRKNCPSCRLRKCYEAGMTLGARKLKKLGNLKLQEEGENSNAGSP
Sequence of ARDBD;PTGES3 (tagless) (Q15185 whole entry, chain 2 of 2): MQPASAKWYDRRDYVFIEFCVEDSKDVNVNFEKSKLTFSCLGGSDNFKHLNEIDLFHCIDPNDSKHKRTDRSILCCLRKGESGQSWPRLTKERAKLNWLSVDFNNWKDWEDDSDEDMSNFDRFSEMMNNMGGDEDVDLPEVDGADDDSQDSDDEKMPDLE

T1 sequence (P19091 528-899, stated change not applied, chain 1 of 2): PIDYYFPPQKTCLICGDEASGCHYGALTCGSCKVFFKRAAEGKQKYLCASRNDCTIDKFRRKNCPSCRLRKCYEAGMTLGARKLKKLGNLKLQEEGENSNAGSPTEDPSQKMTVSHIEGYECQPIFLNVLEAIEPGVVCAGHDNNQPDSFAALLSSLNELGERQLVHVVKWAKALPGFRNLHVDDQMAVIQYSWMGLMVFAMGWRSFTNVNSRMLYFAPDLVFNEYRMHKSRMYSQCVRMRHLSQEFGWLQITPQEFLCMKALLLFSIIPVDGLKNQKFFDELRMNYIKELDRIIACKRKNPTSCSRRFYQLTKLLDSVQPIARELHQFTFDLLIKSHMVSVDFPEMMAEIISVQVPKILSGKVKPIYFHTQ
T1 sequence (Q15185 whole entry, stated change not applied, chain 2 of 2, the tested form may be a part): as the sequence (Q15185 whole entry, chain 2 of 2) above
Sequence of ARΔNTD (AR DBD-hinge-LBD);PTGES3 (tagless) (P19091 528-899, stated change not applied, chain 1 of 2): as the sequence (P19091 528-899, stated change not applied, chain 1 of 2) above
Sequence of ARΔNTD (AR DBD-hinge-LBD);PTGES3 (tagless) (Q15185 whole entry, stated change not applied, chain 2 of 2, the tested form may be a part): as the sequence (Q15185 whole entry, chain 2 of 2) above
Sequence of ARΔNTD (AR DBD-hinge-LBD) (P19091 528-899, stated change not applied): as the sequence (P19091 528-899, stated change not applied, chain 1 of 2) above

B1: ARE 36 bp (dsDNA)
DNA 1: TAAAATGTAAACAACGTAGAACATCAGGAACTCCGG
DNA 2: CCGGAGTTCCTGATGTTCTACGTTGTTTACATTTTA
B1: binds [1]; binds [2]; binds [3].

B2: ARE 36 bp, unlabeled (mass photometry) (dsDNA)
DNA 1: TAAAATGTAAACAACGTAGAACATCATGTTCTCCGG
DNA 2: CCGGAGAACATGATGTTCTACGTTGTTTACATTTTA
B2: binds [4].

B3: Canonical ARE 36 bp (dsDNA)
DNA 1: TAAAATGTAAACAACGTAGAACATCATGTTCTCCGG
DNA 2: CCGGAGAACATGATGTTCTACGTTGTTTACATTTTA
B3: binds (ARDBD;PTGES3 (tagless)).
